Measured values reported in publication PMC4695088, “An Oomycete CRN Effector Reprograms Expression of Plant HSP Genes by Targeting their Promoters”.

T1: MBP:PsCRN108 (Phytophthora sojae, UniProt A0A0M5K865 18-820)
T1 sequence: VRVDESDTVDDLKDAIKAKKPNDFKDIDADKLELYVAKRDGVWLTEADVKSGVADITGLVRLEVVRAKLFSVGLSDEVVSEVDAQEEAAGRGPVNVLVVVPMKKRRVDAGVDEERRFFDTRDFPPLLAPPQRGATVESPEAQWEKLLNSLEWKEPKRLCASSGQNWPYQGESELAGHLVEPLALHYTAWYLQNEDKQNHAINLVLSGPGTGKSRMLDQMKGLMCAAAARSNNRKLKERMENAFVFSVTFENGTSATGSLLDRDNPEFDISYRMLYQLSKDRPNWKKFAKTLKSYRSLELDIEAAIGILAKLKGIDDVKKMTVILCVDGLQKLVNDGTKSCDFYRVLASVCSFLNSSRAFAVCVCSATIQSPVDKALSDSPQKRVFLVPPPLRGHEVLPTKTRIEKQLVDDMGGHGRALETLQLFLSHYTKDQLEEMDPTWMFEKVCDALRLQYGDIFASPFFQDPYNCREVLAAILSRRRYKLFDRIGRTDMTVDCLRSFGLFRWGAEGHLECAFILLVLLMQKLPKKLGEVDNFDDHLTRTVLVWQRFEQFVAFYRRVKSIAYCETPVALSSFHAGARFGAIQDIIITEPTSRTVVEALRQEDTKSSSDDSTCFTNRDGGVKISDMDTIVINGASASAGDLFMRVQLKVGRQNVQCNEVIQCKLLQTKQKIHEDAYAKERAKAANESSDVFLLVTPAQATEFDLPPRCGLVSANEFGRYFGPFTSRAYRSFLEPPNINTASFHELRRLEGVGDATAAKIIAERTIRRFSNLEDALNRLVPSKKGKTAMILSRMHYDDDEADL

T2: GST:PsCRN108 (Phytophthora sojae, UniProt A0A0M5K865 18-820)
T2 sequence: T1 sequence

B1: 19 bp HSE (dsDNA)
DNA 1: CCAGAAGCTTCCAGAAGCC
DNA 2: GGCTTCTGGAAGCTTCTGG
B2: biotinylated 19 bp HSE (dsDNA)
DNA 1: CCAGAAGCTTCCAGAAGCC
DNA 2: GGCTTCTGGAAGCTTCTGG

Key:
MBP:AtHsfA1a [1] = molecular target: T3, MBP:AtHsfA1a (Arabidopsis thaliana, UniProt P41151 1-495); assay: EMSA; up to 2 uM protein, 5 nM DNA; complex in wells; competed by unlabeled HSE; 25 mM HEPES pH 8, 10 mM MgCl2, 20 mM KCl, 0.1 mM EDTA, 1 mM DTT, 100 ng poly(dI-dC), 5% glycerol, 25 C (EMSA 3 h; pull-down in the same buffer, 1 h + 1 h); conditions: protein: recombinant; tags: N-terminal His, MBP (pHMTc); chain copies: 3; label: 5' Alex660 (EMSA); blunt
MBP:PsCRN108 [2] = molecular target: T1, MBP:PsCRN108; assay: EMSA; up to 6 uM protein, 5 nM DNA; weaker than AtHsfA1a; complex in wells; competed by unlabeled HSE; 25 mM HEPES pH 8, 10 mM MgCl2, 20 mM KCl, 0.1 mM EDTA, 1 mM DTT, 100 ng poly(dI-dC), 5% glycerol, 25 C (EMSA 3 h; pull-down in the same buffer, 1 h + 1 h); conditions: protein: recombinant; tags: N-terminal His, MBP (pHMTc); label: 5' Alex660 (EMSA); blunt
MBP:PsCRN108 [3] = molecular target: T1, MBP:PsCRN108; assay: pull-down; 25 mM HEPES pH 8, 10 mM MgCl2, 20 mM KCl, 0.1 mM EDTA, 1 mM DTT, 100 ng poly(dI-dC), 5% glycerol, 25 C (EMSA 3 h; pull-down in the same buffer, 1 h + 1 h); conditions: protein: recombinant; tags: N-terminal His, MBP (pHMTc); label: 5' biotin; blunt
GST:PsCRN108 = molecular target: T2, GST:PsCRN108; assay: as above; conditions: protein: recombinant; tags: N-terminal GST (pGEX-4T-2); label: 5' biotin; blunt
MBP:AtHsfA1a [4] = molecular target: T3, MBP:AtHsfA1a; assay: as above; conditions: protein: recombinant; tags: N-terminal His, MBP (pHMTc); chain copies: 3; label: 5' biotin; blunt

T3 sequence (P41151 whole entry): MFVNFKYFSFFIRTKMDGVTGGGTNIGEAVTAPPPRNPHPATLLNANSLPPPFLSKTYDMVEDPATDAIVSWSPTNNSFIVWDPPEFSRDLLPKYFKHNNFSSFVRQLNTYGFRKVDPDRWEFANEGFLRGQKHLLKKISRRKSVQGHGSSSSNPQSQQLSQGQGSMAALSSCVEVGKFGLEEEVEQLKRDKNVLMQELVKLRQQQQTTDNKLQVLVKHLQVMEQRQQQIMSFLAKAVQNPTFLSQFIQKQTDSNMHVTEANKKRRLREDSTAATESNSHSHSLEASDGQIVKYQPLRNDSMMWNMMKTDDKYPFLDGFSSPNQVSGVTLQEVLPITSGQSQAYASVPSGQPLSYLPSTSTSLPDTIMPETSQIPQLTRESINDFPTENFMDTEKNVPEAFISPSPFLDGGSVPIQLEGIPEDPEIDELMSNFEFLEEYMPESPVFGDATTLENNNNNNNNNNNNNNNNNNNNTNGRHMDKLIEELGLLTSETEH

Binder | binding result (MBP:AtHsfA1a [1]) | binding result (MBP:PsCRN108 [2]) | binding result (MBP:PsCRN108 [3]) | binding result (GST:PsCRN108) | binding result (MBP:AtHsfA1a [4])
B1 | binds | binds | – | – | –
B2 | – | – | binds | binds | binds
